Source: patent US20250313607A1

Experiments:
Assay in all cases: cell-based or functional assay
[1] = biological target: VEGFR NatE MESA receptor pair: CTEVp (190K) receptor with a VEGFR1 signal sequence, ECD, and TMD paired with a NTEVp (WT) receptor with a VEGFR2 signal sequence, ECD, and TMD (human; tobacco etch virus)
[2] = biological target: IL-10R NatE MESA receptor pair in which both ECDs are IL-10Rα (human; tobacco etch virus)
[3] = biological target: IL-10R NatE MESA receptor pair: CTEVp receptor with an IL-10Ra signal sequence, ECD, and TMD paired with a NTEVp receptor with an IL-10Rb ECD and TMD and a hCD8a signal sequence (human; tobacco etch virus)
[4] = biological target: IL-10R NatE MESA receptor pair in which both ECDs are IL-10Rβ (human; tobacco etch virus)

Sequence of human vascular endothelial growth factor VEGFA165 (P15692 other isoform, or with tags, fused parts or gaps limits assumed): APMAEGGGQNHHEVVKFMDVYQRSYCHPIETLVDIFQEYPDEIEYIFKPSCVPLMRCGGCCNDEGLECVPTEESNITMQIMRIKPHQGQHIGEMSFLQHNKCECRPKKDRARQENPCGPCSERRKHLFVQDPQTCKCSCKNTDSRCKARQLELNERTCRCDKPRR

Substance: human vascular endothelial growth factor VEGFA165 (from UniProt P15692 27-191) (ligand)
- dose of recombinant VEGF giving the highest reporter signal, genomically integrated receptors in HEK293FT cells [1]: 100 ng/mL

Substance: human interleukin 10 (IL-10) (from UniProt P22301 19-178) (ligand)
- fold induction of reporter expression, transfected receptors with co-expressed human IL-10 (fold induction) [2]: 1
- IL-10 concentration at which reporter expression plateaus, genomically integrated receptors in Jurkat T cells [3]: 250 ng/mL
- IL-10 concentration at which reporter expression saturates, genomically integrated receptors in HEK293FT cells [3]: 250 ng/mL
- lowest IL-10 concentration distinguished by reporter expression, genomically integrated receptors in HEK293FT cells [3]: 16 ng/mL
- lowest IL-10 dose detected, Jurkats sorted for the top octile of mNeonGreen expression [3]: 2 ng/mL
- lowest IL-10 dose with a significant increase in reporter expression, antibiotic-selected Jurkat T cells [3]: 16 ng/mL
- fold induction of reporter expression, transfected receptors with co-expressed human IL-10 (fold induction) [4]: 1
